Laboratory results taken from publication PMC11452399 (Nature Communications, 2024).

Biological target: human ferritin heavy chain (FTH1) (human, UniProt P02794)
Experiment: ELISA

Chain of human ferritin heavy chain (FTH1) (P02794 whole entry): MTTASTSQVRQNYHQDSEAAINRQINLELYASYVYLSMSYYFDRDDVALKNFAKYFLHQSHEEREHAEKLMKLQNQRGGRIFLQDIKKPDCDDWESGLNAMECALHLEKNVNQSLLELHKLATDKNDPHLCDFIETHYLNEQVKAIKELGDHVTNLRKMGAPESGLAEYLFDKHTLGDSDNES

Work on DSFQVIKNSPLSEWLI [GST-Peptide WT (NCOA4 484-499)] yielded an EC50 of 288 nM.
